# Experimental data published in publication doi:10.1101/2025.01.15.633204.
# Target: barnase (Bacillus amyloliquefaciens) (UniProt P00648)
# Experiment: BLI
# UniProt P00648, sequence (P00648 48-157): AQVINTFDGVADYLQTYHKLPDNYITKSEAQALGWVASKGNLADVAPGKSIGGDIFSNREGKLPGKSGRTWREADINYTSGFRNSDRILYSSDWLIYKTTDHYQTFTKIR
substance,measurement,value
green fluorescent protein-Bs (GFP-Bs) fusion protein,Kd,< 0.1 nM
